A short description of this data set: label from the status in PepcDB records.
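Further: failed if final PepcDB status was selected cloned or expressed and not failed if soluble or beyond.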

In the case of “GGLTEICRKPVSPGCISSVSDWLISIGLPMYAGTLSTAGFSTLSQVPSLSHTCLQEAGITEERHIRKLLSAARLFKLPPGPEAM”, the protein production result was “not failed”.

In the case of “GHMAIQRRIRRVKTVQMTTNSPIHRSGSVLEPGNWQEYDPFLLLMEDIFERGTFDVHPHRGIETVTYVISGELEHFDSKAGHSTLGPGDVQWMTAGRGVVHKEDPASGSTVHSLQLWVNLPSAYKMTEPRYQNLRSKDMPVRKEEGATIRVFSGSSKGVKAPTKNIVPVTMVEMIVEPGTTVVQDLPGHYNGFLYILEGSGVFGADNIEGKAGQALFFSRHNRGEETELNVTAREKLRLLLYAGEPVNEPVVAYGPFVMNTPEQIREAIRDYQEGRFGR”, the protein production result is listed as “not failed”.

In the case of “GIATSDNFMQAFLNVLDQCPKLEVDIPLVKSYLAQFAARAIISELVSISELAQPLESGTHFP”, the protein production result was “failed”.

Regarding “GKVIVLDAGHGGPDGGAVGGKDIVEKDITLEITKKVQDYLQEQGALVILTREGDYDLAQKDTKSYSRRKAEDLKKRVEIINKPDVDFFASIHLNALTSSGSKGAQTFYYRSSIENERAAKFIQAELRTSLENTNRSAKTISHVYLLKYAKTPGALIEAGFLSNVNERYMLNSEKYQQKVAAAVYRGILRYFTEKGNPPE”, the protein production entry was “failed”.

As for “GLGFMALDEDLRIIYVNSGCLRHVRRSRDELLGRVVTEVLPETQGSYFDALCRKVLATGREQQTRVDSLYSPGMTIEVTAAADSGALVVHFRDVTAE”, the protein production result is on record as “not failed”.

With “GMIDGHHHLTQSFAKSLAYGEPSEIFKRIWVPLESNLNEQFVYLCTKLAALESLRGGFTTVCDAGTRSEIGMQLMVRALEETGLRCVLSLICNDGRAHSTLELRQNILENAQIFIKSYKQHKNVHPSLAISIPEVASDDMLYEVSKLCANSNIIFQVHVNEHLASVERSIIQQGMRPLEHLAKVGALGPQTLIAHATMLTPSELLLLQRTDTAVSYNPVASQWKGNAVASAHLMHELNIRFALGTDATRADGFRLLDAAEATQKLIFGIPTGDCSTGGGWMWLDHATTAGAEAVGLSQL”, the protein production result is “failed”.

As to “GQPSNDKKNVLPDWAFGGFERPQGANPVISPIENTKFYCPMTQDYVAWESNDTFNPAATLHDGKIVVLYRAEDKSGVGIGHRTSRLGYATSSDGIHFKREKTPVFYPDNDTQKKLEWPGGCEDPRIAVTAEGLYVMTYTQWNRHIPRLAIATSRNLKDWTKHGPAFAKAYDGKFFNLGCKSGSILTEVVNGKQVIKKIDGKYFMYWGEEHVFAATSEDLVNWTPYVNTDGSLRKLFSPRDGHFDSQLTECGPPAIYTPKGIVLLYNGKNSASRGDKRYTANVYAAGQALFDANDPTRFITRLDEPFFRPMDSFEKSGQYVDGTVFIEGMVYYKDKWYLYYGCADSKVGMAIYNPKKPAAADPLP”, the protein production entry is on record as “not failed”.

In the case of “GQTFAGVIRGVQSYGFFVQIEALQVEGLVHVSSPKDDWYEYRSRQQRLIGRKNRRQFGLGDRVEVEIRNVDYYRQQIDLGVLPLP”, the protein production result is “failed”.

“GRARVKVEGVFYNPRMRFCRDLDMLVFATMDSKEYFDALSASGIRGIRAALEAGKKAVFNDVSPKAVKVIEENLRENGVSGEVINGDAAAVMRQRAFEHIDIDPFGSPAPFMDSACFSAKRYLSVTATDTAALCGSATNSGLKKYGAFAVKTDVYHEVGLRMLIGFVVREATKYEKALFPLISWVREHYYRVHFKIKKSTAMSAKVYEKMGYLAYCSTCLRKKVLGMGEGAERCECGGKFSLIGPIWLGELKQRDFAEKVAEKAEGKLRAFLEKILAEIDAPTAYSLPALAKIHSLTLPPTDVVVEELKKLGYEASRTHYCGFCVKTDADRDVVVKILRSRK”: the protein production entry is recorded as “failed”.

For “GRGAFGVVCKAKWRAKDVAIKQIESESERKAFIVELRQLSRVNHPNIVKLYGACLNPVCLVMEYAEGGSLYNVLHGAEPLPYYTAAHAMSWCLQCSQGVAYLHSMQPKALIHRDLKPPNLLLVAGGTVLKICDFGTACDIQTHMTNNKGSAAWMAPEVFEGSNYSEKCDVFSWGIILWEVITRRKPFDEIGGPAFRIMWAVHNGTRPPLIKNLPKPIESLMTRCWSKDPSQRPSMEEIVKIMTHLMRYFPGADEPLQYPCQYSDEGQSNSATSTGSFMDIASTNTSNKSDTNMEQVPATNDTIKRLESKLLKNQAKQQ”, the protein production entry is listed as “failed”.

“GRKYLVNFSDIYYIESVDKKTFVYLADEIYQTDLRLYQLLHDLQHDGFVQISKSCLLNINVLENIRPLFNSRMEATLLNGERVIVNRRYLPDVKEALKGIQ”: the protein production entry is on record as “failed”.

Consider “GSAYTPLSEDESHRIFELVKEIDTSNQDASKSEKILQQRLDLLHQVRLRYFTPREVARLMSFPENFEFPPETTNRQKYRLLGNSINVKVVGELIKLLTIK”, for which the protein production entry is “failed”.

As for “GSSGSSGHADEVWPGLYLGDQDMANNRRELRRLGITHVLNASHSRWRGTPEAYEGLGIRYLGVEAHDSPAFDMSIHFQTAADFIHRALSQPGGKILVHCAVGVSRSATLVLAYLMLYHHLTLVEAIKKVKDHRGIIPNRGFLRQLLALDRRLRQGLEA”, the protein production result is on record as “not failed”.

For “GTGLHCLSIERDLMKKFHLKDAFIIPTPVNNYHASLGKAAAQYLETHLQQGDLLGIGWGETISKMLENIHFETSINLSIVTLTGGVNHYLSRKQNYLHYMQGDLHIIPTPFLASTTEMAQSILSEPSVKDMLHVASLAHTAIVGIGGLSQDATIVKEEKLTLREMTYIRSQNGAGDILGQFYNTNGDLLELSHHNRLIGTPLSILRNMNHVVGVAGGTEKIDAIYGALKGKFIHTLITDEETALSLLRKDGDC”, the protein production entry was “failed”.

In the case of “GTLQDGAVDWGVRRTFREYVTGDIAHGEWALTAGAQDGGALFRFPGGEGTYEDGDLNAAFRGTVRFTGAHGLDLSLGNVRTVVEDGRGTLYADVTSPDVKEAKVPLVTFTAGEPKPAGGLVKVTEAPAKLTARGAKAFGGMYRAGTEMDPVSLAVAL”, the protein production entry was “failed”.

As for “GTVSATSPNKCKRPMNAFMLFAKKYRVEYTQMYPGKDNRAISVILGDRWKKMKNEERRMYTLEAKALAEEQKRLNPDCWK”, the protein production entry was “not failed”.

As to “GVKCEPFEALTVDVEDAHQGGVMEELGRRKGDLQDMQPDGRGRTRLEYIIPARGLIGFQNEFLTLTRGTGLMSHIFHEYAPLREGSIGERRNGVLISQDNGDAVAYALWKLQDRGRMFVSPGEPLYEGMI”, the protein production result is given as “failed”.

With “GYNRRFDAGFVAARAAVASGELGALHTVRSTTLDPAPPPPAYVAASGGIFRDCSVHDFDIIRWVTGREVVEVYATGGNRGADYIAAAGDADTTAAVLTLDDGTLAVVSNSRHNARGHDVRMELHGFRDSIAVGLEDRLPLRSVEPGTSFPAGTPHDFFMDRFAAAYRAELTAFTEVVAGRRPSPCTVADALEAGWIAEACTLSLHSHRPVTVEEVRRQS”, the protein production result is on record as “failed”.

As to “HARPAGQLKVHSMPGVGQHYVIDAIARYRRNHPDVAFDLTMTHRVPDLLEEGFDVSIVLASELADSGFVSQRLGITYSIVCASPEYVKTFGMAHKPADLLNHACLRLVSPVFP”, the protein production result is reported as “failed”.

Regarding “HFNVLADTPSGLVPLHLRSPQVPAAQQMLNFPEKNKEKPVDLQNFGLRTDIYSKKTLAKSKGASAGREWTEQETLLLLEALEMYKDDWNKVSEHVGSRTQDECILHFLRLPIEDPYLENSDASLGPLAYQPVPFSQSGNPVMSTVAFLASVVDPRVASAAAKAALEEFSRVREEVPLELVEAHVKKVQEAARASGKVDPTYGLESSCIAGTGPDEPEKLEGAEEEKMEADPDGQQPEKAENKVENETDEGDKAQDGENEKNSEKEQDSEVSEDTKSEEKETEENKELTDTCKERESDTGKKKVEHEISEGNVATAAAAALASAATKAKHLAAVEERKIKSLVALLVETQMKKLEIKLRHFEELETIMDREKEALEQQRQQLLTERQNFHMEQLKYAELRARQQMEQQQHGQNPQQAHQHSGGPGLAPLGAAGHPGMMPHQQPPPYPLMHHQMPPPHPPQPGQIPGPGSMMPGQHMPGRMIPTVAANIHPSGSGPTPPGMPPMPGNILGPRVPLTAPNGMYPPPPQQQPPPPPPADGVPPPPAPGPPASAAP”, the protein production entry is “not failed”.

On to “HITLNYLSKTLGMHQTINVILPEDKSYFDTNENAKPLKTMLLLHGLSSDTSSYMRYTSIERYANTHQLAVVMPNADHSFYSNMAYGHSYYDYILEVYDYVHQILPLSKKREDNFIAGHSMGGYGAIKFALTQSYRFSKAAMLSAPYDVSMIGQYQWYDFTPEAIVGNTQHVAGTSFDPYYLVEQAIDNGQALPQLYITCGTEDELYQGNIDFVNYLDEKGIPYQFKKAPGNHDYAFWDKAIEDVIDRF”, for which the protein production entry is on record as “failed”.

On to “HPMCKEHEDEKINIYCLTCEVPTCSMCKVFGIHKACEVAPLQSVFQGQKTE”, for which the protein production result is recorded as “not failed”.

“HQQQRSVMTEEYKVPDGMVGFIIGRGGEQISRIQQESGCKIQIAPDSGGLPERSCMLTGTPESVQSAKRLLDQIVEKGR”: the protein production entry is on record as “not failed”.

As to “HTETGNIWTHLLGFVLFLFLGILTMLRPNMYFMAPLQEKVVFGMFFLGAVLCLSFSWLFHTVYCHSEKVSRTFSKLDYSGIALLIMGSFVPWLYYSFYCSPQPRLIYLSIVCVLGISAIIVAQWDRFATPKHRQTRAGVFLGLGLSGVVPTMHFTIAEGFVKATTVGQMGWFFLMAVMYITGAGLYAARIPERFFPGKFDIWFQSHQIFHVLVVAAAFVHFYGVSNLQEFRYGLEGGCTDDTLL”, the protein production result was “failed”.

Turning to “HYGEEPELVPSYTIFFSGCNFRCVFCQNWDISQFRVGVELLPEYLALKIERAYRFGARNVNFVGGEPTPNLPYILETLRYVNVPIPVVWNSNMYMSEEAMKLLDGIVD”, the protein production result is reported as “failed”.

Take “IAKNNYKELIQNIIEESYTDSQFTLSVLSEKLDLSSGYLSIMFKKNFGIPFQDYLLQKRMEKAKLLLLTTELKNYEIAEQVGFEDVNYFITKFKKYYQITPKQYREMVLKNE”: the protein production result is “failed”.

Turning to “IARLDWSATPLGESGHWPQSLRTAVDIVIHSPMPMLLLWGAELTQIYNDGFALLAGNKHPSAFGHPAHLTWPELMDFTDPIYRAVLNGQVRTFSEQRFSLQRTNGSEYDLWLDLTYSPIRNERGDVAGILVTAIETNERRRIALELQQR”, the protein production result was “failed”.

On to “IEGLFIFDRNQKCVYANHIALNLFGYTLEEVHSKSILDFIALGFRNKVKRFSQNRDQPPYEVLGIKNDGSLFPIMIRGKAIELG”, for which the protein production entry was “failed”.

As for “IFRVLDDVDTAVFNRVGTLTDGEMTVETVTADKGEDPELVLRVAGALAMESHHAISKALVKASREARDTGAGGEDVPHWIEVGNVEITEAGSFQATIELPLIKPSGEKIMRTTEALLWRPRSMTEVREHLSPRLVAAATSGGAPLIVRWKGKDRGVITLSDHVRSDSSDAIIAIEEQGIETMMLSRDTYPVARRYADSLGITHVLAGIAPGKKAQVVRAVHTRGSTVAMIGDESVMDCLKVADVGVLMGVDRPSDLRDDSDDPAADVVVMREEVMSVPTLFKLARRYAKLVNGNIALAWIYNGVAM”, the protein production entry was “failed”.

As to “IHYAGKILQERLVNPPSLMELAREIGINDHKLKVGFRQVFKTTVFGYLHDQRIERSRQLLESGEMTVTGAASAVGFANRGHFAAAFRRKFGINPSLYARQRKL”, the protein production result is reported as “failed”.

On to “IKSISKDYFDYLQTESKFIPLENETIEFYSPIVDYFGDSISVNISFSGDRYKLTDHGETLWNMEQLGIDLTSNKKQKKYQLLNNIVQNYSLVIENKHINFYTNRINLSQAIHDYVLAISEISYLGILKKENIKSLFKDEVMQYFLSNRKIYPNIFPEFKVEGKSKLIHSFEAVFPGEATEYVKTIKRIDKNNAKNVLFDWNDVEIHRNKNFDSNARLNIITEQQDDISEAVSTMLSQYNVEVFSFENKKQLEEKF”, for which the protein production entry is “failed”.

As for “IKVGKAKLLNQVLVNLPTSISQQTIAETDGDSAGSDSFPVGRTHHRWYLCHFGQSLIHVIQVVIGYFIMLAVMSYNTWIFLGVVLGSAVGYYLAYPLLSTA”, the protein production result is listed as “not failed”.

Source of the values: a protein production outcome set (Wang et al. 2014).
